biological target: T1, enzyme I (phosphoenolpyruvate-protein-phosphatase, EC 2.7.3.9) of the bacterial phosphotransferase system (E. coli, UniProt P08839 1-575); assay: cell-based or functional assay

Binder	inhibition IC50 (µM) of in vitro phosphotransferase activity [µM]	uncoupling P1/peptide (x IC50/h)
KKFHLRK [peptide 1]	25	3.2
SGRKSTRVHHWLLVL [peptide 15]	1380	
WHKR [peptide 12]	410	
KKFHIRKR [peptide 9]	1200	132
KKFALRK [peptide 2]	60	6.6
GLRFGKTRVHYLVLG [peptide 14]	650	
KKWHKRKK [peptide 8]	375	64.2
WHKR [peptide 13]	500	

biological target: T1, enzyme I …; assay: cell-based or functional assay; remark: another data set of the same source

Binder	inhibition IC50 [µM]	uncoupling P1/peptide/h [P1/peptide/h]
RHITSL [peptide 27]	440	0.215
RHRTLF [peptide 25]	530	0.23
RHITLF [peptide 28]	160	0.31
DGARLHYLF [peptide 22]	820	0.05
SSLRGHRWVY [peptide 17]		0.07
MRLLKTLCFGLCG [peptide 31]	4900	
RHYLLF [peptide 26]	300	0.29

From patent US6777176 (ARPIDA, dated 2004)
